Experimental data as given in patent publication US20230303660A1.

Biological target: human 4-1BB (human) (UniProt Q07011)
Experiment: flow cytometry; dilution series of HEK293T supernatant on Jurkat TPR cells expressing human 4-1BB

Sequence of human 4-1BB (human) (Q07011 24-255): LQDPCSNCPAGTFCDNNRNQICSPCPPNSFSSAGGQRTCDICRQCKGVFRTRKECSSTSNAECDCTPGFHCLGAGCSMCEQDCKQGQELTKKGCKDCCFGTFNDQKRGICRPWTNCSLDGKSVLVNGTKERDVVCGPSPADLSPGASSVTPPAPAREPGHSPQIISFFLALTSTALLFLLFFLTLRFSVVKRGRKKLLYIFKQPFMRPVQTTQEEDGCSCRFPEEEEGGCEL

| supernatant dilution at which binding is no longer detectable (supernatant dilution (1:x)) | Binder |
| --- | --- |
| 256 | Triple-s4-1BBL-TriXVIII^LL (ligand) GSGSNWSHPQFEKGGSGGHHHHHHGGSGGGSSGAGGSGGSSGSDGASGSGVRLWATRQAMLGQVHEVPEGWLIFVAEQEELYVRVQNGFRKVQLEARTPLPRGTDNEGSLDLRQGMFAQLVAQNVLLIDGPLSWYSDPGLAGVSLTGGLSYKEDTKELVVAKAGVYYVFFQLELRRVVAGEGSGSVSLALHLQPLRSAAGAAALALTVDLPPASSEARNSAFGFQGRLLHLSAGQRLGVHLHTEARARHAWQLTQGATVLGLFRVTPEIPAGLPSPRSEGGGGSGGGGSGGGGSLDLRQGMFAQLVAQNVLLIDGPLSWYSDPGLAGVSLTGGLSYKEDTKELVVAKAGVYYVFFQLELRRVVAGEGSGSVSLALHLQPLRSAAGAAALALTVDLPPASSEARNSAFGFQGRLLHLSAGQRLGVHLHTEARARHAWQLTQGATVLGLFRVTPEIPAGLPSPRSEGGGGSGGGGSGGGGSLDLRQGMFAQLVAQNVLLIDGPLSWYSDPGLAGVSLTGGLSYKEDTKELVVAKAGVYYVFFQLELRRVVAGEGSGSVSLALHLQPLRSAAGAAALALTVDLPPASSEARNSAFGFQGRLLHLSAGQRLGVHLHTEARARHAWQLTQGATVLGLFRVTPEIPAGLPSPRSE |
| 512 | s4-1BBL-TriXV (ligand) GSGSNWSHPQFEKGGSGGHHHHHHGGSGGGSRNLVTAFSNMDDMLQKAHLVIEGTFIYLRDSTEFFIRVRDGWKKLQLGELIPIPADSGSLDLRQGMFAQLVAQNVLLIDGPLSWYSDPGLAGVSLTGGLSYKEDTKELVVAKAGVYYVFFQLELRRVVAGEGSGSVSLALHLQPLRSAAGAAALALTVDLPPASSEARNSAFGFQGRLLHLSAGQRLGVHLHTEARARHAWQLTQGATVLGLFRVTPEIPAGLPSPRSE |
